Measurements taken from patent US20090035266A1 (US Dept. of Health and Human Services, published 2009).

Tests used:
[1] = target: T1, HLA-A2 molecules on T2 cells (human); assay: T2 cell HLA-A2 upregulation assay, flow cytometry, peptide 25 µg/ml
T1 construct: whole, on cells; MHC class I molecule on the cell surface; also called HLA-A2.1
Procedure: (§1) The primary amino acid sequence of human PAGE4 was analyzed for consensus motifs for novel HLA-A2 binding peptides. Two 10-mer peptides (P16-25 designated as P16 and P59-68 designated as P59) and one 9-mer peptide (P84-92 designated as P84) were identified and evaluated (Table 1). […] For this reason, five different analogues of native peptides were synthesized and were investigated for their binding ability to HLA-A2-positive T2 cells along with the native P16, P59 and P84 peptides. A MUC-1 peptide and a CEA HLA-A3 binding peptide (CAP-7) were used as a positive and negative control, respectively (Tsang et al., J Natl Cancer Inst 1995; 87:982-90).
Peptides were used at a concentration of 25 μg/ml. Amino acids are shown by the single-letter code. Substitution amino acids are indicated in bold italic and underlined. MUC-1 peptide is an HLA-A2 binding peptide and CAP-7 is an HLA-A3 binding CEA peptide. ^aResults are expressed in mean fluorescence intensity (MFI). Values in parentheses are fold increases as compared with the negative control.

[2] = target: T1, HLA-A2 molecules on T2 cells; assay: T2 cells loaded overnight with 12.5 µg/ml peptide, washed, brefeldin A, surface HLA-A2 by flow cytometry (FIG. 1B)
Procedure: FIGS. 1A and 1B are line graphs showing the binding of native PAGE4 peptides and their agonist peptides to HLA-A2 molecules. Peptides were analyzed for binding to T2 cell line as described in Example 1. For the results presented in FIG. 1A, peptides were used at concentrations of 0 to 25 μg/ml. P16 peptide (◯), P16-1, P16-2 (▴), P84 (□) and P84-1 (▪), positive control (MUC-1 peptide) (+) and negative control (HLA-A3 binding peptide) (X). Results are expressed in mean fluorescence intensity (MFI). FIG. 1B presents a comparison of the stability of HLA-A2 peptide complexes of PAGE4 native and agonist peptides. T2 cells were incubated overnight with P16 peptide (◯), P16-1, P16-2 (▴), P84 (□) and P84-1 (▪) peptides at a concentration of 12.5 μg/ml and then were washed free of unbound peptide and incubated with brefeldin A to block delivery of new class 1 molecules to the cell surface. At the indicated times, cells were stained for the presence of surface peptide-HLA-A2 complexes. Results are expressed in relative percentage of binding compared with 100% at time 0.
The analogues of P16 were designated P16-1 and P16-2, and the analogue of P84 was designated as P84-1. These peptides bound to HLA-A2 at higher levels than their native peptides. Studies were then conducted to examine the ability of these peptides to bind HLA-A2 at various concentrations. […] Studies were then undertaken to examine the stability of the peptide-MHC complex for the peptides P16, P84, P16-1, P16-2 and P84-1. Each peptide was incubated with T2 cells overnight, the unbound peptides were washed off, and the cells were then incubated with Brefeldin A to block delivery of new class I molecules to the cell surface. Cells were analyzed for the presence of peptide-HLA-A2 complexes at various time points.

[3] = target: T1, HLA-A2 molecules on T2 cells; assay: T2 cell HLA-A2 upregulation assay, flow cytometry
Procedure: as §1

T2 binding (MFI) [1] [MFI]	fold increase as compared with the negative control [1] [fold]	percent of peptide-HLA-A2 complexes remaining over 8 hours [2] [%]	binding result [3]	Binder
546	2.1	> 43.6		YLPPNPKHV (also called P84-1) [P84 (84Y/85L/92V) PAGE4 agonist peptide]
270	1.04	> 43.6		KTPPNPKHA (Synthetic peptide; also called P84-92) [P84 (native) PAGE4 peptide, amino acids 84-92]
710	2.7			ALWGQDVTSV (Positive control of the T2 assay; also called positive control) [MUC-1 peptide]

More lines, now with the values behind:

Binder	T2 binding (MFI) [1] [MFI]	fold increase as compared with the negative control [1] [fold]	percent of peptide-HLA-A2 complexes remaining over 8 hours [2] [%]	binding result [3]
QEAPDVVAFV (Synthetic peptide, purity >95%; also called P16-25) [P16 (native) PAGE4 peptide, amino acids 16-25]	309	1.2		
YLAPDVVAFV (also called P16-2) [P16 (16Y/17L) PAGE4 agonist peptide]	790	3	> 43.6	
QLAPDVVAFV [P16 (17L) PAGE4 agonist peptide]	827	3.2	> 43.6	
VEGDCQEMDL (Synthetic peptide; also called P59-68) [P59 (native) PAGE4 peptide, amino acids 59-68]	246	0.9		no binding (tested: 25 µg/ml)
VLGDCQEMDL (also called P59-1) [P59 (60L) PAGE4 analogue peptide]	293	1.1		
YLGDCQEMDV (also called P59-2) [P59 (59Y/60L/68V) PAGE4 analogue peptide]	384	1.5		
